Data: IntAct's records for PubMed 19644450

B1: Isoform 2 of C-Jun-amino-terminal kinase-interacting protein 4 (Homo sapiens), O60271-2 (parent)
chain: MELEDGVVYQEEPGGSGAVMSERVSGLAGSIYREFERLIGRYDEEVVKELMPLVVAVLENLDSVFAQDQEHQVELELLRDDNEQLITQYEREKALRKHAEEKFIEFEDSQEQEKKDLQTRVESLESQTRQLELKAKNYADQISRLEEREAELKKEYNALHQRHTEMIHNYMEHLERTKLHQLSGSDQLESTAHSRIRKERPISLGIFPLPAGDGLLTPDAQKGGETPGSEQWKFQELSQPRSHTSLKDELSDVSQGGSKATTPASTANSDVATIPTDTPLKEENEGFVKVTDAPNKSEISKHIEVQVAQETRNVSTGSAENEEKSEVQAIIESTPELDMDKDLSGYKGSSTPTKGIENKAFDRNTESLFEELSSAGSGLIGDVDEGADLLGMGREVENLILENTQLLETKNALNIVKNDLIAKVDELTCEKDVLQGELEAVKQAKLKLEEKNRELEEELRKARAEAEDARQKAKDDDDSDIPTAQRKRFTRVEMARVLMERNQYKERLMELQEAVRWTEMIRASRENPAMQEKKRSSIWQFVPTRFSRLFSSSSNTTKKPEPPVNLKYNAPTSHVTPSVKKRSSTLSQLPGDKSKAFDFLSEETEASLASRREQKREQYRQVKAHVQKEDGRVQAFGWSLPQKYKQVTNGQGENKMKNLPVPVYLRPLDEKDTSMKLWCAVGVNLSGGKTRDGGSVVGASVFYKDVAGLDTEGSKQRSASQSSLDKLDQELKEQQKELKNQEELSSLVWICTSTHSATKVLIIDAVQPGNILDSFTVCNSHVLCIASVPGARETDYPAGEDLSESGQVDKASLCGSMTSNSSAETDSLLGGITVVGCSAEGVTGAATSPSTNGASPVMDKPPEMEAENSEVDENVPTAEEATEATEGNAGSAEDTVDISQTGVYTEHVFTDPLGVQIPEDLSPVYQSSNDSDAYKDQISVLPNEQDLVREEAQKMSSLLPTMWLGAQNGCLYVHSSVAQWRKCLHSIKLKDSILSIVHVKGIVLVALADGTLAIFHRGVDGQWDLSNYHLLDLGRPHHSIRCMTVVHDKVWCGYRNKIYVVQPKAMKIEKSFDAHPRKESQVRQLAWVGDGVWVSIRLDSTLRLYHAHTYQHLQDVDIEPYVSKMLGTGKLGFSFVRITALMVSCNRLWVGTGNGVIISIPLTETNKTSGVPGNRPGSVIRVYGDENSDKVTPGTFIPYCSMAHAQLCFHGHRDAVKFFVAVPGQVISPQSSSSGTDLTGDKAGPSAQEPGSQTPLKSMLVISGGEGYIDFRMGDEGGESELLGEDLPLEPSVTKAERSHLIVWQVMYGNE

Variants of: B1
Conditions: with arf6_human ARF6, P62330
Chain of arf6_human ARF6, P62330 (P62330 whole entry): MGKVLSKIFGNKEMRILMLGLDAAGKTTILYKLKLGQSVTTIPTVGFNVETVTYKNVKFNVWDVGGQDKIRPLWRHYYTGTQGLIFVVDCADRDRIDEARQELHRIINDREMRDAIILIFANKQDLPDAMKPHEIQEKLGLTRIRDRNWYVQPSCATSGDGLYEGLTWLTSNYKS

| Variant | effect of a mutation on the interaction |
| --- | --- |
| D425A | decreasing interaction |

Variants of: B1
Conditions: with arf6_human ARF6, P62330
Remark: another data set of the same source

| Variant | effect of a mutation on the interaction |
| --- | --- |
| I421A | decreasing interaction |
